Experiment [1] has as its target T1, MBP-ARHGEF11 (mouse ARHGEF11 residues 1334–1406, except for deleted residues 1352–1394 by alternative … (mouse, UniProt Q68FM7 1334-1406, deleted residues 1352–1394 by alternative splicing)). Put plainly: replicate 1; without BSA blocking.
For experiment [2], the target named is T1, MBP-ARHGEF11 (mouse ARHGEF11 residues …). The experiment can be described thus: replicate 2; without BSA blocking.
The target is the same in experiment [3]. Put plainly: replicate 3; without BSA blocking.
The target is the same in experiment [4]. Put plainly: replicate 1; GSA-immobilized MBP-ARHGEF11, CDNB assay.
The target is the same in experiment [5]. The experiment can be described thus: replicate 2; GSA-immobilized MBP-ARHGEF11, CDNB assay.
Experiment [6] has the same target. Put plainly: replicate 3; GSA-immobilized MBP-ARHGEF11, CDNB assay.

T1 sequence (Q68FM7 entry or part of it deleted residues 1352–1394 by alternative splicing): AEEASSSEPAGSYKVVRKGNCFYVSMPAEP

B1: GST-ZO1-ZU5 (mouse ZO-1 ZU5 domain, residues 1624–1745) (domain or fragment)
chain: EDGHTVVATARGIFNSNGGVLSSIETGVSIIIPQGAIPEGIEQEIYFKVCRDNSILPPLDKEKGETLLSPLVMCGPHGLKFLKPVELRLPHCDPKTWQNKCLPGDPNYLVGANCVSVLIDHF
The Kd is the concentration at which binding is half-saturated. For B1, the Kd in experiment [1] stood at 8.7 µM; in experiment [2], 10.9 µM; in experiment [3] it was 14.7 µM; in experiment [4] it was 37.3 µM; in experiment [5], 28 µM; in experiment [6], 56 µM.

Source of the values: article PMC10204415 (2023).
